Where two headings read alike, the source gives them in different places.

One may read the stoichiometry N as the number of molecules, sites or subunits per partner or assembly.

For assay [1], the target named is MS2-Lp23, MS2-L truncated of the first 22 amino acids, C-terminal StrepII-tag (MS2 phage). Description: native MS; LILBID-MS; derivatives CF expressed in standard A19 S30 lysate with 60 µM DMPG nanodiscs, purified; 50 mM ammonium acetate pH 7.4; laser 10-20 mJ.
Assay [2] shares this target. Description: native MS; LILBID-MS; derivatives CF expressed in standard A19 S30 lysate with 0.4% Brij78, purified; 50 mM ammonium acetate pH 7.4 with 0.02% Brij78; laser 10-20 mJ.
For assay [3], the target named is MS2-Lp26, MS2-L truncated of the first 25 amino acids, C-terminal StrepII-tag (MS2 phage). Description: native MS; LILBID-MS; derivatives CF expressed in standard A19 S30 lysate with 60 µM DMPG nanodiscs, purified; 50 mM ammonium acetate pH 7.4; laser 10-20 mJ.
Assay [4] has the same target. Description: native MS; LILBID-MS; derivatives CF expressed in standard A19 S30 lysate with 0.4% Brij78, purified; 50 mM ammonium acetate pH 7.4 with 0.02% Brij78; laser 10-20 mJ.
Assay [5] concerns the target MS2-Lp29, MS2-L truncated of the first 28 amino acids, C-terminal StrepII-tag (MS2 phage). Description: native MS; LILBID-MS; derivatives CF expressed in standard A19 S30 lysate with 60 µM DMPG nanodiscs, purified; 50 mM ammonium acetate pH 7.4; laser 10-20 mJ.
The target is the same in assay [6]. Description: native MS; LILBID-MS; derivatives CF expressed in standard A19 S30 lysate with 0.4% Brij78, purified; 50 mM ammonium acetate pH 7.4 with 0.02% Brij78; laser 10-20 mJ.
In assay [7] the target is MS2-Lp32, MS2-L truncated of the first 31 amino acids, C-terminal StrepII-tag (MS2 phage). Description: native MS; LILBID-MS; derivatives CF expressed in standard A19 S30 lysate with 60 µM DMPG nanodiscs, purified; 50 mM ammonium acetate pH 7.4; laser 10-20 mJ.
Assay [8] has the same target. Description: native MS; LILBID-MS; derivatives CF expressed in standard A19 S30 lysate with 0.4% Brij78, purified; 50 mM ammonium acetate pH 7.4 with 0.02% Brij78; laser 10-20 mJ.
Assay [9] deals with MS2-Lp35, MS2-L truncated of the first 34 amino acids, C-terminal StrepII-tag (MS2 phage). Description: native MS; LILBID-MS; derivatives CF expressed in standard A19 S30 lysate with 60 µM DMPG nanodiscs, purified; 50 mM ammonium acetate pH 7.4; laser 10-20 mJ.
For assay [10] the target is unchanged. Description: native MS; LILBID-MS; derivatives CF expressed in standard A19 S30 lysate with 0.4% Brij78, purified; 50 mM ammonium acetate pH 7.4 with 0.02% Brij78; laser 10-20 mJ.
Assay [11] deals with MS2-L, full-length phage lysis protein with C-terminal StrepII-tag (MS2 phage) (UniProt P03609). Description: native MS; LILBID-MS; derivatives CF expressed in standard A19 S30 lysate with 60 µM DMPG nanodiscs, purified; 50 mM ammonium acetate pH 7.4; laser 10-20 mJ.
The target of assay [12] is T1, chaperone DnaJ with C-terminal His6-tag (UniProt P08622 1-376).
T1 construct: Chaperone DnaJ; the dnaJ gene cloned into NdeI/XhoI of pET21a; source: E. coli T7 Express, purified (Ni-NTA); not shown: His6, C-terminal, kept
T1 sequence (looked up): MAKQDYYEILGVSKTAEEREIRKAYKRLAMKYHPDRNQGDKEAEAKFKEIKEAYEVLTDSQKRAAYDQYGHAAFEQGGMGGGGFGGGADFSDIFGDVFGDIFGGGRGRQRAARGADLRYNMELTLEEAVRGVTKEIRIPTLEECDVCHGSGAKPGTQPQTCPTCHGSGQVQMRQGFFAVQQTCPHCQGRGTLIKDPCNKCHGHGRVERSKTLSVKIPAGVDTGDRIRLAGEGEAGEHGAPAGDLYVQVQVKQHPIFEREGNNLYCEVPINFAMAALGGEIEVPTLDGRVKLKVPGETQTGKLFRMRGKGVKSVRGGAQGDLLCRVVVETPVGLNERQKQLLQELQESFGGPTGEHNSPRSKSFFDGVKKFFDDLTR
Description: pull-down. As to conditions: one partner purified.

Assay [13] deals with MS2-L, full-length phage lysis protein with C-terminal StrepII-tag (MS2 phage) (UniProt P03609). Description: native MS; LILBID-MS; derivatives CF expressed in standard A19 S30 lysate with 60 µM DMPG nanodiscs, purified; 50 mM ammonium acetate pH 7.4; laser 10-20 mJ. The source holds these as a separate data set.

Regarding “MS2-Lp23, MS2-L truncated of the first 22 amino acids, C-terminal StrepII-tag (domain or fragment)”, the stoichiometry N in [1] was above 10 monomers; in assay [2], below 4 monomers.
Regarding “MS2-Lp26, MS2-L truncated of the first 25 amino acids, C-terminal StrepII-tag (domain or fragment)”, the values for the stoichiometry N in [3] and in assay [4] were above 10 monomers and below 4 monomers, respectively.
“MS2-Lp29, MS2-L truncated of the first 28 amino acids, C-terminal StrepII-tag (domain or fragment)”: the stoichiometry N was above 10 monomers in assay [5] and below 4 monomers in assay [6].
Take “MS2-Lp32, MS2-L truncated of the first 31 amino acids, C-terminal StrepII-tag (domain or fragment)”: the results for the stoichiometry N in [7] and in assay [8] were above 10 monomers and below 4 monomers, respectively.
On to “MS2-Lp35, MS2-L truncated of the first 34 amino acids, C-terminal StrepII-tag (domain or fragment)”, for which the stoichiometry N in [9] was above 10 monomers; in assay [10], below 10 monomers.

B1: MS2-L, full-length phage lysis protein with C-terminal StrepII-tag (natural protein, MS2 phage, UniProt P03609 1-75, looked up)
chain: MKTRFPQQSQQTPASTNRRRPFKHEDYPCRRQQRSSTLYVLIFLAIFLSKFTNQLLLSLLEAVIRTVTTLQQLLT
notes: Lysis protein L of bacteriophage MS2, 75 amino acids; codon exchange GAA (Glu) to AAA (Lys) at the first position after the start methionine; In nanodisc samples the peptide sits in MSP1E3D1/DMPG nanodiscs; also called full-length MS2-L; full-length toxin MS2-L; source: also unpurified in the reaction mix; not shown: StrepII, C-terminal, kept
As to B1, the stoichiometry N in [11] is above 10 monomers; in assay [13], below 12 monomers. Further, the binding result in [12] is recorded as “binds”.

The values above are taken from article PMC10688784, “In vitro characterization of the phage lysis protein MS2-L” (Microbiome Research Reports, 2023).
